For the test, the target named is PfEMP1B (GFP-tagged minimal PfEMP1 construct) (P. falciparum). The test is described as follows: co-IP; GFP-Trap on parasite lysates crosslinked with increasing concentrations of DSP; 1% Triton X-100, 150 mM NaCl, 50 mM Tris-HCl pH 7.4; western blot of eluates. (In general: Immunoblotting shows a protein as a band on a membrane.)

B1: ring-exported protein-1 (REX1) (natural protein)
chain: MADYSSNEEETPKEEKKISKLEDMQSPFDYKRFFRKYTIFAPFILVYFTLMFFVNSTVQNGTMLLNSIKENANSKLPALLWNKIIGKGNDNEVNFEDKKMIEGNKSGNGEEHNKHKRRQVDNQEDDYDVDEYGNPKSGAPYKSEEEHAEQQNYYGEHHGDYEDKNEYHGKSNIENNKDFPEQGQKDEEKEKEAKKKAEEFEKRKQLHEEEKRKARETQQALHKKLQEQLQRLKEQEKKKVEHQKLIHKIKTQGDVDPAVQKVLNKYNQKEKDEEQQILKIRDLQVQLRHIQQRIQSLKSTNNGQPKTKDEYLQLKDLQKEYYDKEQDEQNMIEHLEHLQGEMQYLYEELQIVYDENQAKTAQAKDEQHELKPQAEKDASKLTTTYDQTKEVKPQAEKDASKLTTTYDQTKEVKPQAEKDASKLTTTYDQTKEVKPQAEKDALAKTENQNGELLPQAEKDASKLTTTYDQTKEVKPQAEKDALAKTENQNGELLPQAEKDASKLTTTYDQTKEVKPQAEKDALAKTENQNGELLPQAEKDASKLTTTYDQTKEVKPQAEKDALAKTENQSGELLTQAEKDALAKKESEAPKGSSTSDKNTTENQLNAEAQSEVKPQWQKDYWKSKNESQTETNNTWKKDSWKKKTEEQQNAEAQQEVKSPYEKYSYNKETKPQNDKYTLNKEVKPQNEKYTYNQKVKAENTESEKSLLESSVFN
For B1, the fold increase of pull-down in the presence of DSP was above 10 fold.
